One assay concerns the target Papain (UniProt P00784). In words: cell-based or functional assay.
Another assay addresses trypsin. In words: cell-based or functional assay.

For two substances, inhibition of papain activity (relative inhibition assay, substrate N-Cbz-Phe-Arg-7-amido-4-methylcoumarin) and inhibition of trypsin activity (relative inhibition assay, substrate N-Cbz-Phe-Arg-7-amido-4-methylcoumarin) results are on record in patent publication US6784337.

Sequence of UniProt P00784 (P00784 134-345 limits assumed): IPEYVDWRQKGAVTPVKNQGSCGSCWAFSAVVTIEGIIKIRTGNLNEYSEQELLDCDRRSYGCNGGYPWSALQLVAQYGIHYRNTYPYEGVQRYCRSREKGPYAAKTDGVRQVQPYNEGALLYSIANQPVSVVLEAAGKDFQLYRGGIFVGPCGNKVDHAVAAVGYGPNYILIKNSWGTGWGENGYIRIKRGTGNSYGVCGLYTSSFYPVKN

For the substance “Oc-IΔD86/PsMTa/CpTI fusion protein (products of the construct) (from UniProt P09229 39-140)”, the inhibition of papain activity (relative inhibition assay, substrate N-Cbz-Phe-Arg-7-amido-4-methylcoumarin) with Papain is 95%. For the same substance, the inhibition of trypsin activity (relative inhibition assay, substrate N-Cbz-Phe-Arg-7-amido-4-methylcoumarin) in the assay with trypsin came out at 95%.

In the assay with Papain, “Oc-IΔD86/go/CpTI fusion protein (from UniProt P09229 39-140)” showed an inhibition of papain activity (relative inhibition assay, substrate N-Cbz-Phe-Arg-7-amido-4-methylcoumarin) of 95%. Further, in the assay with trypsin, the inhibition of trypsin activity (relative inhibition assay, substrate N-Cbz-Phe-Arg-7-amido-4-methylcoumarin) stood at 95%.
